Assay results published in the supplement of paper PMC10065799, “High-throughput profiling of sequence recognition by tyrosine kinases and SH2 domains using bacterial peptide display” (eLife, 2023).

Columns and labels:
MERTK = MERTK (UniProt Q12866); experiment: phosphorylation enrichment, bacterial display (enrichment ratio); higher = better substrate or ligand; peptides without Tyr show the background
Fes = Fes (UniProt P07332); experiment: as above
Fer (mouse) = experiment: as above
Fyn = Fyn (UniProt P06241); experiment: as above
AncSZ = experiment: as above
EPHB2 = EPHB2 (UniProt P29323); experiment: as above
FGFR3 = FGFR3 (UniProt P22607); experiment: as above
EPHB1 = EPHB1 (UniProt P54762); experiment: as above
c-Src = experiment: as above
c-Abl (mouse) = experiment: as above
Jak2 = Jak2 (UniProt O60674); experiment: as above
FGFR1 = FGFR1 (UniProt P11362); experiment: as above
Hck = Hck (UniProt P08631); experiment: as above
c-Src SH2 = experiment: SH2 binding enrichment of the phosphorylated peptide, bacterial display (enrichment ratio); higher = better substrate or ligand; peptides without Tyr show the background
SHP2-C SH2 = experiment: as above
Grb2 SH2 = Grb2 SH2 (UniProt P62993); experiment: as above
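Wherever SH2 binding enrichment of the phosphorylated peptide, bacterial display is given: peptide library displayed on the E. coli surface as eCPX fusions, selected cells deep-sequenced, score is each peptide's frequency after selection divided by its frequency in the input.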
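Wherever phosphorylation enrichment, bacterial display is given: 11-residue human phosphosite peptides and single-mutation variants displayed on the E. coli surface, counted by deep sequencing, each peptide's frequency after selection divided by its frequency in the unselected input library; frequency after pTyr selection over input frequency; kinase dosed for 20-30% of maximal phosphorylation in three min.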

FGFR1, sequence (P11362 whole entry, looked up): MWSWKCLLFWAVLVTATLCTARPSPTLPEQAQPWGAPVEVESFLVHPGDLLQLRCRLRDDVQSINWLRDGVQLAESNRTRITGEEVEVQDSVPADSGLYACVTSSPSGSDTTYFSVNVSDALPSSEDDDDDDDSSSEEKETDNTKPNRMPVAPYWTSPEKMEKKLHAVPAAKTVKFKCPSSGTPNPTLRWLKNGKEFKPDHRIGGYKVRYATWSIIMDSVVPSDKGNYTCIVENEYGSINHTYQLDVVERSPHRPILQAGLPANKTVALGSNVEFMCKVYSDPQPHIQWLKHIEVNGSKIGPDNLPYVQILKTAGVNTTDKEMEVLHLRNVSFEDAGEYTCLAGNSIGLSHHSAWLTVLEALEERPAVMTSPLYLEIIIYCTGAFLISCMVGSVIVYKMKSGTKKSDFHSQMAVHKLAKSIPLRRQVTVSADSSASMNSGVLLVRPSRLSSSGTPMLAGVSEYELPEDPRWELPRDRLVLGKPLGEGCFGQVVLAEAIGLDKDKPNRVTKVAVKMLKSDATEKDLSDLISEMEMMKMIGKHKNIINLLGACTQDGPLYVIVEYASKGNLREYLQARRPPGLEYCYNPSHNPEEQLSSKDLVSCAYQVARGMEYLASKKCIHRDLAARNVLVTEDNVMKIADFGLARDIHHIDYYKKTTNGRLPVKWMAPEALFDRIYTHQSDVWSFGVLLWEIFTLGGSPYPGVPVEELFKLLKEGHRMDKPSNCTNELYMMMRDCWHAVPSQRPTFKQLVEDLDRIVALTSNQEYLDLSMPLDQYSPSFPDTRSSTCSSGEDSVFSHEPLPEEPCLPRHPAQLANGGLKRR
Fyn, sequence (P06241 whole entry, looked up): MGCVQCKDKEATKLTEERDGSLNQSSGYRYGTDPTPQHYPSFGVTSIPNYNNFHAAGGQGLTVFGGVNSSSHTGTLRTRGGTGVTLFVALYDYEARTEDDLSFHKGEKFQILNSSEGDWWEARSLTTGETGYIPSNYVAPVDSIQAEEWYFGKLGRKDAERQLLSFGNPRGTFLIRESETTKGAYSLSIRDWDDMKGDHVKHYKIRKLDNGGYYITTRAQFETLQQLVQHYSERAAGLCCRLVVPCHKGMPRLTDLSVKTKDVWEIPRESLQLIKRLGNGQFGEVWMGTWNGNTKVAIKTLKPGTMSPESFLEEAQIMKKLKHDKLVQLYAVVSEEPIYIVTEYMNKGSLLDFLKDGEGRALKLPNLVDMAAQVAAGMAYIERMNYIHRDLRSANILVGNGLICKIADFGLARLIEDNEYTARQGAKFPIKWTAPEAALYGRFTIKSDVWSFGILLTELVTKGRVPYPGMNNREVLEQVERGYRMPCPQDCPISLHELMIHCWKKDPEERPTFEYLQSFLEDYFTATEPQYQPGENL
EPHB2, sequence (P29323 whole entry, looked up): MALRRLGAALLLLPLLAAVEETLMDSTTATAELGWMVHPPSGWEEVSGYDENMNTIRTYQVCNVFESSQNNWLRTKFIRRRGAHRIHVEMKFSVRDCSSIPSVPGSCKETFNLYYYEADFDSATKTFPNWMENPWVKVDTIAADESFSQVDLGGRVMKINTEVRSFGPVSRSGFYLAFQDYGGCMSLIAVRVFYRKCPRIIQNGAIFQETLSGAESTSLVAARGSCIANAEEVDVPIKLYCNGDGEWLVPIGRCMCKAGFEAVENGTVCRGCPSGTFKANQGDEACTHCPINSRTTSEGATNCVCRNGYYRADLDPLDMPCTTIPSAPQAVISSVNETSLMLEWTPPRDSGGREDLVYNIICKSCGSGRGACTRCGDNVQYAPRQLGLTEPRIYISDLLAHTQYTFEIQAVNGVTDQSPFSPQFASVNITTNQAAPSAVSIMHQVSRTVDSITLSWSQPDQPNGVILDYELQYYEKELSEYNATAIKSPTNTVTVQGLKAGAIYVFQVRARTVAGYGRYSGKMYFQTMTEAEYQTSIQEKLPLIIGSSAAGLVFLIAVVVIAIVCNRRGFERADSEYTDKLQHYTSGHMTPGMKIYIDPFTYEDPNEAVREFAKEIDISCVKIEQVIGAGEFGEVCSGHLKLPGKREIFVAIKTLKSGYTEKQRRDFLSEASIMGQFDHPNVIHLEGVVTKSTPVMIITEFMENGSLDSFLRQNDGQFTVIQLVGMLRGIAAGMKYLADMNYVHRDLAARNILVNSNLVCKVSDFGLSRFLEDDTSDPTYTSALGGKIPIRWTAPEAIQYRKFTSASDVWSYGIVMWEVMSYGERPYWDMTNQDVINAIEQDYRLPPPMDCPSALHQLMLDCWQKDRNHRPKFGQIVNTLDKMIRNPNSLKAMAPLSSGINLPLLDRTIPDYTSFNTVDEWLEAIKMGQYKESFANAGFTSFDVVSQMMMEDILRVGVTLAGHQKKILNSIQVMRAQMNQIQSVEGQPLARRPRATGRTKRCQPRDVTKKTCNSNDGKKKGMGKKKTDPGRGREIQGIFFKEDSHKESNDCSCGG
FGFR3, sequence (P22607 whole entry, looked up): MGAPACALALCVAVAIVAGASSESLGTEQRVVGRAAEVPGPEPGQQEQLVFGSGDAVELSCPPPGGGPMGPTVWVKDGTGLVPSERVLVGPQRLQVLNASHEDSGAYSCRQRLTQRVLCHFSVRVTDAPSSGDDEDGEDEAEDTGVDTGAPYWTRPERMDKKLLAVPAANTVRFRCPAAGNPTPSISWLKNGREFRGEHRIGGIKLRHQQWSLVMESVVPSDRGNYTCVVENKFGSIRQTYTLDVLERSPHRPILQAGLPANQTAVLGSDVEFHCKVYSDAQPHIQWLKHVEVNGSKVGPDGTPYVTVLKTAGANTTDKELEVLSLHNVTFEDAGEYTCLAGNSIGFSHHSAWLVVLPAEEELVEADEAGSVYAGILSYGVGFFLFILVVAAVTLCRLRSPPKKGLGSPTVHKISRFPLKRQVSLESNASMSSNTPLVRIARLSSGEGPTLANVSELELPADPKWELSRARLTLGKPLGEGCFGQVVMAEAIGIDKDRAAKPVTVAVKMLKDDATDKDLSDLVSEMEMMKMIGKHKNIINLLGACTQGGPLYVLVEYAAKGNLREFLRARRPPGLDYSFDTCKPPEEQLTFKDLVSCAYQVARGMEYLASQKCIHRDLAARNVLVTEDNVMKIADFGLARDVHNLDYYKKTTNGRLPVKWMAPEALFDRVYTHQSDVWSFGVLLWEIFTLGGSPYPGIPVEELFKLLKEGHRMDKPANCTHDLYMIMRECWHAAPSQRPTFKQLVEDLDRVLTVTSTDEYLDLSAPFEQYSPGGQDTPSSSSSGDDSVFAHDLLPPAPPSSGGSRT
MERTK, sequence (Q12866 whole entry, looked up): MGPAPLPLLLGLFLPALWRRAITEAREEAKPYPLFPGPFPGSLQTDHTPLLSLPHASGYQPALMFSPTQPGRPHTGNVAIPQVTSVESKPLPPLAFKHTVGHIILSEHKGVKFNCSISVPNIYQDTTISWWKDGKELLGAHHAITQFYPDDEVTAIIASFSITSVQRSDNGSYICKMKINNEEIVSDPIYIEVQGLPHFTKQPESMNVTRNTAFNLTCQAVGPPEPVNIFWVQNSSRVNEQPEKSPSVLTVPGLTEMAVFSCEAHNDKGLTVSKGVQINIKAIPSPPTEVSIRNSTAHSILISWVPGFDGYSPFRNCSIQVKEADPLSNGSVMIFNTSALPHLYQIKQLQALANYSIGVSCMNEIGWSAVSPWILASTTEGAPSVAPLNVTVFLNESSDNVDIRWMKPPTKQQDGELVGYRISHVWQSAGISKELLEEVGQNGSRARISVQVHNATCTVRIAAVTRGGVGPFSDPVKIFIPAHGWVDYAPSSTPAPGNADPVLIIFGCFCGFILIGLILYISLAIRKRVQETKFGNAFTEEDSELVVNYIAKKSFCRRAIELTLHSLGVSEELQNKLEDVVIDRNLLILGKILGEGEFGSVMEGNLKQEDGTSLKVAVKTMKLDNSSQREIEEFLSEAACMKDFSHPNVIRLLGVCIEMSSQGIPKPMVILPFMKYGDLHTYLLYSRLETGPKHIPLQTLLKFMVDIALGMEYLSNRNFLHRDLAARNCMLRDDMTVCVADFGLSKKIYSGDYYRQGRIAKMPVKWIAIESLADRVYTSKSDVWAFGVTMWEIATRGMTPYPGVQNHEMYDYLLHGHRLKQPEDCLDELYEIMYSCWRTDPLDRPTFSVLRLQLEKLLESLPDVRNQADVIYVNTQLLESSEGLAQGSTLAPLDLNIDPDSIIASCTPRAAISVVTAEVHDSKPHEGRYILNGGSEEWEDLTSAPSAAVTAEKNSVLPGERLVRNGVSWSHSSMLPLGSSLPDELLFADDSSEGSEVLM
Hck, sequence (P08631 whole entry, looked up): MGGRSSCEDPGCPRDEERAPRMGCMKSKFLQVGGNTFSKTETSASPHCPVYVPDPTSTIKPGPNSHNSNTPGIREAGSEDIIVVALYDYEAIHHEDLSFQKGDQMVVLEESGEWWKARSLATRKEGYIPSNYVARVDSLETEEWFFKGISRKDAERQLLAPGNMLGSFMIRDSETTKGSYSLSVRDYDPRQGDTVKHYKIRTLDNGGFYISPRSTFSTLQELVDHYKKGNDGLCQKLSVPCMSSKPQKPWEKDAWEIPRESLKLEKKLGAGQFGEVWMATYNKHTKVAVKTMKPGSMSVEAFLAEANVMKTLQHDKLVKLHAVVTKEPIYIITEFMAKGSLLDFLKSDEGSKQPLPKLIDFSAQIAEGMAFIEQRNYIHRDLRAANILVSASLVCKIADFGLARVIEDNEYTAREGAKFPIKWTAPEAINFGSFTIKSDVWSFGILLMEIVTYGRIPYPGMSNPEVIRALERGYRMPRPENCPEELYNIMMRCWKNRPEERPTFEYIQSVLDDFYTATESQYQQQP

Sequence | SH2 binding enrichment (c-Src SH2) | SH2 binding enrichment (SHP2-C SH2) | SH2 binding enrichment (Grb2 SH2) | phosphorylation enrichment (MERTK) | phosphorylation enrichment (Fes) | phosphorylation enrichment (Fer (mouse)) | phosphorylation enrichment (Fyn) | phosphorylation enrichment (AncSZ) | phosphorylation enrichment (EPHB2) | phosphorylation enrichment (FGFR3) | phosphorylation enrichment (EPHB1) | phosphorylation enrichment (c-Src) | phosphorylation enrichment (c-Abl (mouse)) | phosphorylation enrichment (Jak2) | phosphorylation enrichment (FGFR1) | phosphorylation enrichment (Hck)
SPPILYSFFLD [FCRL6_Y239_YF] | 0.74 | 1.01 | 1.21 | 9.91 | 1.14 | 1.84 | 2.28 | 1.19 | 1.97 | 1.38 | 2.85 | 3.23 | 0.901 | 1.18 | 1.4 | 2.08
SQAPGYSYTAA [CYCS_Y47_G42S] | 1.07 | 0.631 | 0.763 | 0.45 | 0.666 | 0.499 | 0.454 | 0.637 | 0.408 | 0.43 | 0.466 | 0.594 | 0.708 | 0.765 | 0.593 | 0.422
SSEILYHIIKG [CDH17_Y489_K486E] | 2.4 | 1.18 | 1.2 | 8.04 | 0.875 | 1.08 | 2.85 | 1.38 | 0.684 | 8.65 | 0.806 | 4.11 | 10.4 | 1.69 | 10.9 | 5.02
SSGSRYQPLAS [NCAPD2_Y1325_T1321S] | 0.583 | 0.843 | 0.977 | 0.43 | 0.558 | 0.392 | 0.384 | 0.529 | 0.431 | 0.433 | 0.366 | 0.453 | 0.488 | 0.531 | 0.468 | 0.442
STEVIYLPRRK [STK11_Y36_Q37L] | 0.336 | 0.586 | 0.546 | 0.618 | 0.589 | 0.526 | 0.7 | 0.624 | 0.588 | 0.53 | 0.419 | 0.591 | 0.466 | 0.568 | 0.52 | 0.515
SVKVFYKKCWF [EPHA7_Y202_S207F_YF] | 0.441 | 0.765 | 0.764 | 0.425 | 1.23 | 0.544 | 0.568 | 1.06 | 0.518 | 0.833 | 0.782 | 0.478 | 0.816 | 1.01 | 0.533 | 0.513
SVMAEYGLYGA [VSX2_Y219] | 0.593 | 0.609 | 0.908 | 0.502 | 0.882 | 3.74 | 6.65 | 0.709 | 1.53 | 0.57 | 0.732 | 4.66 | 0.628 | 0.59 | 0.529 | 6.45
SVTRTYSPALN [TP53_Y126_C124R] | 0.424 | 0.579 | 0.961 | 0.313 | 0.522 | 0.485 | 0.384 | 0.445 | 0.378 | 0.418 | 0.313 | 0.399 | 0.427 | 0.429 | 0.394 | 0.345
SVVEPYEPPEV [TP53_Y220_V218E] | 0.608 | 0.726 | 1.13 | 0.442 | 1.1 | 0.462 | 0.741 | 1.29 | 0.533 | 0.654 | 0.541 | 0.4 | 0.601 | 0.985 | 0.521 | 0.472
SVVGPYEPPEV [TP53_Y220_V218G] | 0.523 | 0.618 | 0.935 | 0.409 | 1.05 | 0.498 | 0.403 | 1.14 | 0.526 | 0.69 | 0.579 | 0.441 | 0.728 | 0.855 | 0.432 | 0.505
SVVVPYEPPEA [TP53_Y220_V225A] | 0.795 | 0.675 | 0.967 | 0.54 | 1.19 | 0.593 | 0.483 | 1.28 | 0.536 | 0.738 | 0.61 | 0.574 | 0.859 | 1.1 | 0.496 | 0.54
SVVVPYEPPVV [TP53_Y220_E224V] | 0.606 | 0.627 | 0.709 | 0.397 | 0.921 | 0.457 | 0.453 | 1 | 0.574 | 0.61 | 0.518 | 0.437 | 0.659 | 0.731 | 0.446 | 0.437
TCFDKYTGNTY [FN1_Y101] | 0.472 | 0.754 | 0.924 | 0.345 | 1.16 | 0.534 | 0.511 | 1.3 | 0.63 | 0.648 | 0.519 | 0.584 | 0.717 | 1.01 | 0.463 | 0.516
TEHMAYCPIQC [SHC4_Y403_Q400H] | 1.2 | 0.685 | 0.821 | 0.416 | 0.821 | 0.557 | 0.466 | 0.72 | 0.524 | 0.638 | 0.489 | 0.764 | 0.661 | 0.778 | 0.458 | 0.805

More lines, main results first:

SH2 binding enrichment (c-Src SH2) | SH2 binding enrichment (SHP2-C SH2) | SH2 binding enrichment (Grb2 SH2) | Sequence | phosphorylation enrichment (MERTK) | phosphorylation enrichment (Fes) | phosphorylation enrichment (Fer (mouse)) | phosphorylation enrichment (Fyn) | phosphorylation enrichment (AncSZ) | phosphorylation enrichment (EPHB2) | phosphorylation enrichment (FGFR3) | phosphorylation enrichment (EPHB1) | phosphorylation enrichment (c-Src) | phosphorylation enrichment (c-Abl (mouse)) | phosphorylation enrichment (Jak2) | phosphorylation enrichment (FGFR1) | phosphorylation enrichment (Hck)
0.833 | 1.05 | 1.17 | SNTFLYQLVFD [EXO1_Y284_N279S] | 5.86 | 1.49 | 4.62 | 1.61 | 1.56 | 3.93 | 1.9 | 5.47 | 2.22 | 0.784 | 1.36 | 1.69 | 2.63
0.477 | 0.585 | 0.859 | SPLEVYVDKSQ [FLNA_Y373_F370L] | 0.47 | 1.25 | 0.521 | 0.469 | 1.2 | 0.716 | 0.74 | 0.653 | 0.508 | 0.723 | 1.14 | 0.631 | 0.523
0.525 | 0.762 | 0.82 | SQQTFYRVSNM [ABCD1_Y181_YF] | 0.388 | 0.741 | 0.39 | 0.409 | 0.564 | 0.507 | 0.575 | 0.31 | 0.408 | 0.492 | 0.546 | 0.433 | 0.513
0.552 | 0.596 | 0.723 | SRGLAYPARSA [LEMD2_Y122_P126S] | 0.35 | 0.529 | 0.381 | 0.316 | 0.501 | 0.334 | 0.275 | 0.244 | 0.431 | 0.382 | 0.312 | 0.288 | 0.25
0.418 | 0.786 | 0.789 | SRKSEYLLPVA [MYLK_Y611] | 0.413 | 0.602 | 0.44 | 0.619 | 0.748 | 0.512 | 0.569 | 0.504 | 0.526 | 0.93 | 0.509 | 0.392 | 0.465
0.825 | 2.18 | 0.984 | SRPTQYSSFAC [SPEM2_Y104_S108A] | 0.519 | 0.727 | 0.435 | 0.563 | 0.66 | 0.494 | 0.533 | 0.362 | 0.665 | 0.736 | 0.733 | 0.482 | 0.511
0.545 | 0.486 | 0.73 | SSAETYSRMCL [NBEAL2_Y1835_R1839C] | 0.561 | 0.851 | 1.01 | 0.526 | 0.84 | 0.616 | 0.669 | 0.649 | 0.708 | 0.849 | 0.695 | 0.426 | 0.859
0.482 | 0.742 | 1.02 | SSDPDYLAAVD [GLB1_Y154] | 0.487 | 1.27 | 0.604 | 0.656 | 1.34 | 0.74 | 0.885 | 0.693 | 0.55 | 0.814 | 1.12 | 0.56 | 0.631
0.527 | 0.678 | 0.893 | SSQVLYKLEQS [THADA_Y701] | 0.442 | 0.726 | 0.431 | 0.48 | 0.628 | 0.592 | 0.507 | 0.476 | 0.706 | 0.496 | 0.731 | 0.434 | 0.487
0.447 | 0.702 | 0.734 | SVMAEYGLYRA [VSX2_Y219_G223R] | 0.552 | 0.862 | 0.512 | 7.16 | 0.951 | 1.28 | 0.578 | 0.701 | 6.41 | 0.945 | 0.569 | 0.537 | 6.46
0.363 | 0.654 | 0.752 | SVTCKYSPALN [TP53_Y126_T125K] | 0.386 | 0.795 | 0.392 | 0.344 | 0.638 | 0.457 | 0.515 | 0.431 | 0.454 | 0.458 | 0.629 | 0.429 | 0.431
0.366 | 0.539 | 0.663 | SVTCRYSPALN [TP53_Y126_T125R] | 0.514 | 0.938 | 0.437 | 0.397 | 0.864 | 0.446 | 0.561 | 0.508 | 0.427 | 0.611 | 0.805 | 0.413 | 0.392
3.08 | 0.856 | 0.962 | SVVVPYEQPEV [TP53_Y220_P222Q] | 0.544 | 1.28 | 0.568 | 0.532 | 1.37 | 0.715 | 0.774 | 0.652 | 0.69 | 1.03 | 1.24 | 0.604 | 0.612
0.399 | 0.093 | 0.683 | TAVNGYAFGGG [ECHS1_Y137_A132T] | 0.462 | 0.723 | 0.62 | 0.593 | 0.558 | 0.531 | 0.922 | 0.417 | 0.561 | 0.592 | 0.737 | 0.404 | 0.419
0.492 | 0.609 | 0.863 | TEFIQYVRRKN [MAX_Y73_M74V_YF] | 0.639 | 0.626 | 0.483 | 0.675 | 0.66 | 0.551 | 0.653 | 0.48 | 0.473 | 0.435 | 0.521 | 0.74 | 0.559
1.52 | 0.814 | 0.86 | TEQDPYNNIVC [MMUT_Y364_R369C] | 0.528 | 1.22 | 0.627 | 0.555 | 1.14 | 0.572 | 0.666 | 0.555 | 0.642 | 0.784 | 0.952 | 0.659 | 0.566
0.502 | 0.821 | 0.922 | TESNNYIFTTL [FAM83B_Y637_K640T_YF] | 0.612 | 1.27 | 0.722 | 0.539 | 1.12 | 0.641 | 0.912 | 0.687 | 0.537 | 0.982 | 1.11 | 1.02 | 0.571
0.587 | 1.39 | 0.481 | TFACSYTPVKA [FLNB_Y708_YF] | 0.342 | 1.08 | 0.449 | 0.444 | 1.16 | 0.577 | 0.653 | 0.527 | 0.536 | 0.961 | 1.09 | 0.582 | 0.562
0.426 | 0.64 | 0.808 | TFGVVYRAKDK [CDK11B_Y453_YF] | 0.396 | 0.798 | 0.372 | 0.563 | 0.831 | 0.592 | 0.506 | 0.428 | 0.513 | 0.584 | 0.703 | 0.333 | 0.481
